The record followed here is patent US20240301429A1.

For orientation: Kd means the equilibrium constant for the complex coming apart. A lower Kd goes with tighter binding.

The chains are these.
B1: NRP1 trap M (receptor)
chain: FRNDKCGDTIKIESPGYLTSPGYPHSYHPSEKCEWLIQAPDPYQRIMINFNPHFDLEDRDCKYDYVEVFDGENENGHFRGKFCGKIAPPPVVSSGPFLFIKFVSDYETHGAGFSIRYELFKRGPECSQNYTTPSGVIKSPGFPEKYPNSLECTYIVFAPKMSEIILEFESFDLEPDSNPPGGMFCRYDRLEIWDGFPDVGPHIGRYCGQKTPGRIRSSSGILSMVFYTDSAIAKEGFSANYSVLQSSVSEDFKCMEALGMESGEIHSDQITASSQYSTNWSAERSRLNYPENGWTPGEDSYREWIQVDLGLLRFVTAVGTQGAISKETKKKYYVKTYKIDVSSNGEDWITIKEGNKPVLFQGNTNPTDVVVAVFPKPLITRFVRIKPATWETGISMRFEVYGCRSGSKENLYFQG
B2: NRP1 trap Z (receptor)
chain: FRNDKCGDTIKIESPGYLTSPGYPHSYHPSEKCEWLIQAPDPYQRIMINFNPHFDLEDRDCKYDYVEVFDGENENGHFRGKFCGKIAPPPVVSSGPFLFIKFVSDYETHGAGFSIRYELFKRGPECSQNYTTPSGVIKSPGFPEKYPNSLECTYIVFAPKMSEIILEFESFDLEPDSNPPGGMFCRYDRLEIWDGFPDVGPHIGRYCGQKTPGRIRSSSGILSMVFYTDSAIAKEGFSANYSVLQSSVSEDFKCMEALGMESGEIHSDQITASSQYSTNWSAERSRLNYPENGWTPGKKSYREWIQVDLGLLRFVTAVGTQGAISKETKKKYYVKTYKIDVSSNGEDWITIKEGNKPVLFQGNTNPTDVVVAVFPKPLITRFVRIKPATWETGISMRFEVYGCKITDYPCSGMLGMVSGLISDSQITSSNQGDRNWMPENIRLVTSRSGWALPPAPHSYINEWLQIDLGEEKIVRGIIIQGGKHRENKVFMRKFKIGYSNNGSDWKMIMDDSKRKAKSFEGNNNYDTPELRTFPALSTRFIRIYPERATHGGLGLRMELLGCEVEAPTAGPTTPNGNLVDECDDDQANCHSGTGDDFQLTGGTTVLATEKPTVIDSTIQSEFPTYGFNCEFGWGSHKTFCHWEHDNHVQLKWSVLTSKTGPIQDHTGDGNFIYSQADENQKGKVARLVSPVVYSQNSAHCMTFWYHMSGSHVGTLRVKLRYQKPEEYDQLVWMAIGHQGDHWKEGRVLLHKSLKLYQVIFEGEIGKGNLGGIAVDDISINNHISQEDCAKPADLDKKNPEIKIDETGSTPGYEGEGEGDKNISRKPGNVLKTLDPRSGSKENLYFQG
B3: NRP1 trap AB (receptor)
chain: B2 chain with K298E, K299D, S325A, E327K

Residue numbers refer to the chain shown, from its start.

In this experiment the target is AP-VEGF165 (human) (UniProt P15692). Kind of experiment: saturation binding, trap coated on plate, AP-VEGF165 titrated, AP chemiluminescence.
Chain of AP-VEGF165 (human) (P15692 other isoform, or with tags, fused parts or gaps): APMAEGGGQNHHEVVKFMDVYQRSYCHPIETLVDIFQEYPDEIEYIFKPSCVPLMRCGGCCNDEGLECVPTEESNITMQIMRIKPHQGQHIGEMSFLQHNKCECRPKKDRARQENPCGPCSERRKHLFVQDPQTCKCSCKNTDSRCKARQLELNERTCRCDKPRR
The molecule B1 gave a Kd of 20.1 nM. B2 showed a Kd of 67 nM. This Kd lies about 3.3-fold higher than the previous one.

With B3, the Kd is 29.5 nM.
